Laboratory results as given in patent US6958236B2, “Control of gene expression in plants” (priority 2000, dated 2005).

System: pCGS154 reporter
Test: Transient transfection of S2 Drosophila cells with luciferase reporter and EcR receptor plasmids
Assay type: cell-based
Settings: for Fold Activation With Chemistry Assay #1 / Fold Activation With Chemistry Assay #2: Example 8, 0.2 μM tebufenozide; for Fold Activation With Chemistry: Example 9, 0.2 μM tebufenozide
Procedure: An in vivo cell based assay is designed to measure transcriptional activation by the receptors of a reporter plasmid. S2 Drosophila cells (ATCC CRL-1963) are transiently transfected with luciferase reporter and receptor expression plasmids using the calcium phosphate precipitation procedure (Di Nocera and David (1983) PNAS 80, 7095-7098). S2 cells are plated in 96 well format at a density of 2×10^5 in 166.6 μl of Schneider's Drosophila media supplemented with antibiotics and 10% heat inactivated fetal bovine serum (GIBO-BRL). The following day, 33.4 μl of a calcium phosphate precipitate containing 3-6 ng of pCGS154 reporter plasmid, 3-6 ng of EcR receptor plasmid along with salmon sperm DNA to a total of 400 ng DNA per well is added. Chemical ligands are added 16-24 hours after DNA addition to the cells. Cells are then harvested and extracted 24 hours after chemistry addition following the procedures for the luciferase assay by centrifuging and resuspending the cell pellets in 100 μl of cell culture lysis reagent (Promega). Luciferase activity is quantitated using chemiluminescence (Promega) using an analytical luminescence model 2001 luminometer.
S2 cells contain Drosophila EcR and USP. The endogenous USP can be used as the heterodimerization partner for EcR or exogenous USP expression plasmid can be added to the assay.
To compare the activities of Manduca and Drosophila EcR, S2 cells are transiently transfected using the above procedure with the reporter plasmid pCGS 154 and either full-length Drosophila EcR, DDV, full-length Manduca EcR, or MMV. Tebufenozide at 0.2 µM and 2 μM is used as the chemical ligand. Luciferase assays are performed as described above. All of the results are normalized as a ratio of activity to the light unit value for the pCGS154 reporter without chemistry.
The activities of the EcR-VP16 chimeras are compared by transiently transfecting S2 cells as described in Example 3. Tebufenozide is added to the cells at 0.2 μM concentration. Results are expressed as fold activation, a ratio of the activity of the constructs with chemistry added as compared to activity of the constructs without chemistry. All results are normalized to the luciferase activity of the pCGS154 reporter without receptor addition.
(§1) The activities of the EcR-VP16 chimeras are compared by transiently transfecting S2 cells as in Example 3. Tebufenozide is added to the cells at 0.2 μM concentration. Results are expressed as fold activation of constructs with chemistry as compared to without chemistry. All results are normalized to the luciferase activity of the pCGS154 reporter without receptor.
as §1, with “chemistry addition.” for “chemistry.”

Molecule | Fold Activation With Chemistry Assay #1 | Fold Activation With Chemistry Assay #2 | Fold Activation With Chemistry
EBV (protein) MGREELSPASSVNGCSTDGEARRQKKGPAPRQQEELCLVCGDRASGYHYNALTCEGCKGFFRRSVTKNAVYICKFGHACEMDMYMRRKCQECRLKKCLAVGMRPECVVPETQCAQKRKEKKAQREKDKLPVSTTTVDDHMPPIMQCDPPPPEAARILECLQHEVVPRFLSEKLMEQNRLKNIPPLTANQQFLIARLVWYQEGYEQPSEEDLKRVTQTWQSDEDEEESDMPFRQITEMTILTVQLIVEFAKGLPGFAKISQSDQITLLKACSSEVMMLRVARRYDAATDSVLFANNQAYSRDNYRKAGMSYVIEDLLHFCRCMYSMMMDNVHYALLTAIVIFSDRPGLEQPLLVEEIQRYYLNTLRVYILNQNSASPRCPVVFAKILGILTELRTLGMQNSNMCISLKLKNRKLPPFLEEIWDVESRGKLAPPTDVSLGDELHLDGEDVAMAHADALDDFDLDMLGDGDSPGPGFTPHDSAPYGALDMADFEFEQMFTDALGIDEYGG | 975.0 fold | 273.7 fold | 
MCV: EcR chimera: Manduca sexta C+D domains, Chironomus tentans E domain, VP16; SEQ ID NO:91-92 (protein) MGREELSPASSINGCSTDGEPRRQKKGPAPRQQEELCLVCGDRASGYHYNALTCEGCKGFFRRSVTKNAVYICKFGHACEMDMYMRRKCQECRLKKCLAVGMRPECVVPESTCKNKRREKEAQREKDKLPVSTTTVDDHMPAIMQCDPPPPEAARIHEVVPRFLTEKLMEQNRLKNVTPLSANQKSLIARLVWYQDGYEQPSEEDLKRITTELEEEEDQEHEANFRYITEVTILTVQLVVEFAKGLPAFIKIPQEDQITLLKACSSEVMMLRMARRYDHDSDSILFANNTAYTKQTYQLAGMEETIDDLLHFCRQMYALSIDNVEYALLTAIVIFSDRPGLEKAEMVDIIQSYYTETLKVYIANRHGGESRCSVQFAKLLGILTELRTMGNKNSEMCFSLKLRNRKLPRFLEEVWDVGDVKLAPPTDVSLGDELHLDGEDVAMAHADALDDFDLDMLGDGDSPGPGFTPHDSAPYGALDMADFEFEQMFTDALGIDEYGG |  |  | 553.3 fold
DBV: EcR chimera: Drosophila melanogaster C+D domains, black cutworm E domain, VP16; SEQ ID NO:73-74 (protein) MGRDDLSPSSSLNGYSANESCDAKKSKKGPAPRVQEELCLVCGDRASGYHYNALTCEGCKGFFRRSVTKSAVYCCKFGRACEMDMYMRRKCQECRLKKCLAVGMRPECVVPENQCAMKRREKKAQKEKDKMTTSPSSQHGGNGSLASGGGQDFVKKEILDLMTCEPPQHATIPLLPDEILAKCQARNIPSLTYNQLAVIYKLIWYQEGYEQPSEEDLKRVTQTWQSDEDEEESDMPFRQITEMTILTVQLIVEFAKGLPGFAKISQSDQITLLKACSSEVMMLRVARRYDAATDSVLFANNQAYSRDNYRKAGMSYVIEDLLHFCRCMYSMMMDNVHYALLTAIVIFSDRPGLEQPLLVEEIQRYYLNTLRVYILNQNSASPRCPVVFAKILGILTELRTLGMQNSNMCISLKLKNRKLPPFLEEIWDVESRGKLAPPTDVSLGDELHLDGEDVAMAHADALDDFDLDMLGDGDSPGPGFTPHDSAPYGALDMADFEFEQMFTDALGIDEYGG | 17.37 fold | 3.94 fold | 
CCV: EcR chimera: Chironomus tentans C+D and E domains, VP16; SEQ ID NO:87-88 (protein) MKLDDGNMSVHMGDGLDGKKSSSKKGPVPRQQEELCLVCGDRASGYHYNALTCEGCKGFFRRSVTKNAVYCCKFGHECEMDMYMKRKCQECRLKKCLAVGMRPECVVPENQCAIKRKEKKAQKEKDKVPGIVGSNTSSSSLLNQSLNNGSLKNLEISYREELLEQLMKCDPPPHPMQQLLPEKLLMENRAKGTPQLTANQVAVIYKLIWYQDGYEQPSEEDLKRITTELEEEEDQEHEANFRYITEVTILTVQLVVEFAKGLPAFIKIPQEDQITLLKACSSEVMMLRMARRYDHDSDSILFANNTAYTKQTYQLAGMEETIDDLLHFCRQMYALSIDNVEYALLTAIVIFSDRPGLEKAEMVDIIQSYYTETLKVYIANRHGGESRCSVQFAKLLGILTELRTMGNKNSEMCFSLKLRNRKLPRFLEEVWDVGDVKLAPPTDVSLGDELHLDGEDVAMAHADALDDFDLDMLGDGDSPGPGFTPHDSAPYGALDMADFEFEQMFTDALGIDEYGG |  |  | 2.0 fold
